{
  "source": "patent US20210180049A1",
  "about": "(CHUGAI SEIYAKU KABUSHIKI KAISHA, priority 2013, published 2021)",
  "key": {"[1]": {"target": "T1, human IL-6 receptor (hIL-6R) (Homo sapiens, UniProt P08887)", "T1 sequence (P08887 20-357)": "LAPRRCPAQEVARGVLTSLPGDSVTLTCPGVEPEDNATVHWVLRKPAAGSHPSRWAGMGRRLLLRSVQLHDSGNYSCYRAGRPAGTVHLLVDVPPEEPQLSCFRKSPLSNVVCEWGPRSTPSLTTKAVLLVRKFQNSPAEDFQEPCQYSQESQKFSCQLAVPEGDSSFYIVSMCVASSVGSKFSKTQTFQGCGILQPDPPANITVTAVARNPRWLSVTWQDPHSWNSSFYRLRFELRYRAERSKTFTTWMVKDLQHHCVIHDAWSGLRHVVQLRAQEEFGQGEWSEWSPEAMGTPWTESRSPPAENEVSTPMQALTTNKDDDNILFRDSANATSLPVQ", "test": "SPR (Biacore T200) of 6RNMSC1-2_F02 with hIL-6R with or without kynurenine or ATP", "format": "binding", "details": "1 μmol/L hIL-6R", "description": "Biacore T200 (GE Healthcare) was used to analyze the interaction of antigen-antibody reaction between 6RNMSC1-2_F02 and human IL-6 receptor (hIL-6R). An appropriate amount of protein A (Invitrogen) was immobilized onto Sensor chip CM5 (GE Healthcare) by the amine coupling method. The antibody of interest was captured onto the sensor chip, and the antigen hIL-6R was allowed to interact. The running buffer used was 20 mmol/L ACES, 150 mmol/L NaCl, 0.05% (w/v) Tween 20, pH 7.4. The interaction with the antigen hIL-6R was measured at 25° C. hIL-6R was diluted with the running buffer, the running buffer containing 100 μmol/L kynurenine, or, as a control, the running buffer containing 10 mmol/L ATP.\nDiluted hIL-6R solutions and the running buffer which is the blank were injected at a flow rate of 10 μL/min for one minute and hIL-6R was allowed to interact with 6RNMSC1-2_F02 captured on the sensor chip. Then, the running buffer was run at a flow rate of 10 μL/min for one minute to observe the dissociation of hIL-6R from the antibody. […] The dissociation constant KD (M) of 6RNMSC1-2_F02 for hIL-6R was calculated from the kinetic parameters, the association rate constant ka (1/Ms) and the dissociation rate constant kd (l/s), calculated based on the sensorgrams obtained by the measurements. Each parameter was calculated using Biacore T200 Evaluation Software (GE Healthcare)."}, "[2]": {"format": "binding", "details": "Biacore T200, 15° C.", "procedure": "Kynurenine-dependent antibody 6RNMSC1-2_F02 obtained from the library was assessed for its binding to kynurenine and derivatives thereof using Biacore T200 (GE Healthcare). The following […] molecules were assessed as derivatives: the kynurenine isomer D-kynurenine and the derivatives 3-hydroxy-DL-kynurenine, 4-(4-methylphenyl)-4-oxobutyric acid, R00447436-000-001, RO0635389-000-001, R00438566-001-001, and RO0635390-000-001. The chemical structure of each compound is shown below.\nAn appropriate amount of protein A (Invitrogen) was immobilized onto Sensor chip CM4 (GE Healthcare) by the amine coupling method. The antibody of interest was captured thereon, and the antigen kynurenine and derivatives thereof were allowed to interact. The running buffer used was 50 mmol/L Tris-HCl, 150 mmol/L NaCl, 0.02% (w/v) Tween 20, 5% DMSO, pH 7.6. All measurements were carried out at 15° C. The antigens were diluted with the running buffer.\nThen, the running buffer was run at a flow rate of 30 μL/min for 60 seconds to observe the dissociation of antigens from the antibody. Kinetic parameters, the association rate constant ka (1/Ms) and the dissociation rate constant kd (l/s), were calculated based on the sensorgrams obtained by the measurements. The dissociation constant KD (M) was calculated from these constants. Each parameter was calculated using Biacore T200 Evaluation Software (GE Healthcare)."}, "[3]": {"target": "T1, human IL-6 receptor (hIL-6R)", "test": "SPR effect of kynurenine concentration on binding to immobilized hIL-6R", "details": "1 μg/mL antibody, 180 seconds", "procedure": "Next, the effect of kynurenine concentration on antigen-antibody reaction between 6RNMSC1-2_F02 and hIL-6R was assessed using Biacore T200 (GE Healthcare). The running buffer used was 20 mmol/L ACES, 150 mmol/L NaCl, 0.05% (w/v) Tween 20, pH 7.4. Antigen-antibody reaction between 6RNMSC1-2_F02 and human IL-6R was assayed at 25° C. hIL-6R was immobilized onto Sensor chip CM5 by amine coupling. As an analyte, 1 μg/mL 6RNMSC1-2_F02 diluted with 20 mmol/L ACES, 150 mmol/L NaCl, 0.05% (w/v) Tween 20, pH 7.4, containing kynurenine adjusted to various concentrations were allowed to interact for 180 seconds and changes in the amount of binding were observed."}, "hIL-6R": {"target": "T2, hIL-6R (Homo sapiens, UniProt P08887)", "T2 sequence (P08887 20-357)": "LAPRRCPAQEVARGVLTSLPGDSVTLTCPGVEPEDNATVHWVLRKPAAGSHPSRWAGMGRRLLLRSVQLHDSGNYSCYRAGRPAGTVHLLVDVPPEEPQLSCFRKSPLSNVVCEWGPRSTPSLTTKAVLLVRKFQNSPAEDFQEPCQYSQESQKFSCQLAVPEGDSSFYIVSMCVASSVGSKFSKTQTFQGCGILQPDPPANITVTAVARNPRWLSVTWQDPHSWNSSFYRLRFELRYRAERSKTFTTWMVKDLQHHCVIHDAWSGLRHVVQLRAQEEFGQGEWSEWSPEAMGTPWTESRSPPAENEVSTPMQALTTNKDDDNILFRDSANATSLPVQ", "format": "binding", "details": "Octet", "procedure": "Octet ([…]) was used to assess the effect of various small molecules on the antigen-antibody reaction between hIL-6R and the kynurenine-switch antibody 6RNMSC1-2_F02 obtained from a library. A total of eight molecules shown in Example (7-5), which are kynurenine and derivatives thereof, were evaluated as small molecules. The assay buffer used was TBS, pH 7.4, and measurements were carried out at 30° C. Biotinylated hIL-6R was immobilized onto a streptavidin sensor chip, the antibody was allowed to interact, and changes in the amount of its binding were observed. The antibody was diluted using the assay buffer or the assay buffer to which either one of the small molecules has been added. The final concentration of each small molecule was adjusted to 100 uM, while the final antibody concentration was adjusted to 10 μg/mL."}},
  "data": [
    {"molecule": "6RNMSC1-2_F02: antibody binding hIL-6R in the presence of kynurenine; heavy chain SEQ ID NO: 32, light chain SEQ ID NO: 33 (antibody, listed as Homo sapiens, V domains shown) VH: QVQLVQSGAEVKKPGSSVKVSCKASGGTFSSYAISWVRQAPGQGLEWMGGIIPIFGTANYAQKFQGRVTITADESTSTAYMELSSLRSEDTAVYYCARDAPVVARPRGAFDIWGQGTMVTVSS VL: DIVMTQTPLSSPVTLGQPASISCRSSQSLVHSDGNTYLSWLQQRPGQPPRLLIHEISNRFSGVPDRFSGSGAGTNFTLKISRVEAEDVGVYYCMQATQFPRTFGQGTKVEIK", "values": [
      {"measurement": "hIL-6R binding in the absence of kynurenine", "setting": "[1]", "result": "not detected"},
      {"measurement": "hIL-6R binding in the presence of kynurenine", "setting": "[1]; 100 μmol/L kynurenine", "result": "bound to hIL-6R"},
      {"measurement": "binding to 3-hydroxy-DL-kynurenine", "setting": "[2]", "result": "bind"},
      {"measurement": "binding to RO0635389-000-001", "setting": "[2]", "result": "bind"},
      {"measurement": "binding to RO0635390-000-001", "setting": "[2]", "result": "bind"},
      {"measurement": "effect of kynurenine concentration on the amount of binding to hIL-6R", "setting": "[3]", "result": "the higher the concentration of kynurenine acting as a switch, the greater the amount of 6RNMSC1-2_F02 binding to hIL-6R"},
      {"measurement": "hIL-6R binding in the presence of 3-hydroxy-DL-kynurenine", "setting": "hIL-6R; 100 uM small molecule", "result": "binding to hIL-6R was observed"},
      {"measurement": "hIL-6R binding in the presence of RO0635389-000-001", "setting": "hIL-6R; 100 uM small molecule", "result": "binding to hIL-6R was observed"},
      {"measurement": "hIL-6R binding in the presence of RO0635390-000-001", "setting": "hIL-6R; 100 uM small molecule", "result": "binding to hIL-6R was observed"},
      {"measurement": "hIL-6R binding in the absence of kynurenine", "setting": "hIL-6R; 30° C., antibody 10 μg/mL", "result": "not observed"},
      {"measurement": "hIL-6R binding in the presence of 100 uM kynurenine", "setting": "hIL-6R; 30° C., antibody 10 μg/mL", "result": "bound to hIL-6R"},
      {"measurement": "Tm", "setting": "Tm measurement by DSC", "result": 82.9, "unit": "°C"}
    ]}
  ]
}
